Experimental findings from publication PMC4564863 are described below.

Series [1] addresses InbR (Rv0275c) (Mycobacterium tuberculosis, UniProt L7N6A2). Nature of the series: biochemical.
The target in series [2] is T1, InbR (Mycobacterium tuberculosis H37Rv, UniProt L7N6A2 1-241).
T1 sequence: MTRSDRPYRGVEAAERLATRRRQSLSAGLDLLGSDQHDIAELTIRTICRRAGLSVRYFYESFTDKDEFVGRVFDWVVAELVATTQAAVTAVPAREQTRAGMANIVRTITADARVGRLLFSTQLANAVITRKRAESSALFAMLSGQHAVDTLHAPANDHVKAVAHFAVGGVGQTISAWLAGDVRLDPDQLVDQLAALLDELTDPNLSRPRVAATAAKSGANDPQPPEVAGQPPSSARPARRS
Kind of series: EMSA; 0.25-2 uM InbR. The conditions noted are these: protein: recombinant; tags: His6 (pET28a, N-terminal); label: FITC. Background: Mobility shift assays separate free from complexed probe on a gel.

Broadly, the Kd is the equilibrium constant for the complex coming apart. Low values mean tighter binding, high ones weaker binding. In the case of `NNC(=O)c1ccncc1` [INH, Isoniazid], in series [1], the Kd is 720 nM.

B1: Rv0275cp1 (dsDNA)
DNA 1: TGCCGCTAATTATGGAAACACCTGTATCCTGATATTGGCCGG
DNA 2: CCGGCCAATATCAGGATACAGGTGTTTCCATAATTAGCGGCA
Consider B1, for which the binding result in series [2] was “binds”.

B2: Rv0275cp4 (dsDNA)
DNA 1: TGCCGCTAATTATTTATTTGCCGTGGGAATGATATTGGCCGG
DNA 2: CCGGCCAATATCATTCCCACGGCAAATAAATAATTAGCGGCA
For B2, the binding result in series [2] was “no binding”.
